In US20230242902A1, “A HIGHLY ERROR-PRONE […] R[…] FOR TARGETED CONTINUOUS EVOLUTION IN VIVO” (The Regents of the University of California, priority 2017, published 2023):

test system: p1; test: p1 copy number by p1-encoded mKate2 fluorescence; format: cell-based, S. cerevisiae; details: OR-Y24, measured in triplicate
Method in brief: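 p1 copy number came from mKate2 fluorescence of saturated OR-Y24 cultures (triplicates, regrown from 1:10,000), read by flow cytometry and converted through a linear curve calibrated by qPCR (LEU2 against genomic LEU3). For small-scale tests, OD600-normalized plate-reader fluorescence (588/633 nm) was scaled to a w.t. TP-DNAP1 control.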

| Molecule | Mean fold-increase over w.t. (p1 copy number) [fold] |
| --- | --- |
| G410I: TP-DNAP1 variant (protein) MDYKDKALNDLRNVYADFDSLPLDFRQILIKDRATLLQKEDVEKKILERQEDAKKYAEYLKQSEIPERISLPNIKRHKGVSISFEETSEDMVLEPRPFIFDGLNIRCFRRETIFSLKNKILNMVKESSSFKNVSRQSVSFMYFKIFNKGKVIASTKSVNIYEDKIDERLEDLCNNFDDVLKKIIDVTYGYESLFVSETYSYVIFYAKSIYFPQPRCVNNWGNNIPNILTFDSFKLFTANKNNVSCIKQCSRFLWQKDFNTLEEMIEYKNGNICIVTPQLHINDVRDIKSFNDIRLYSESPIKTFSVIDNTITYLFYFKEHLGVIFNITKSRHDRRVTKFSPLSKFSDVKNITVCFDIESYFDPEKESNQVNIPFICCASIIYNKVIGNIVDFEGRDCVAQMIEYVVDICIELNISSVELIAHNGGGYDFHYILSSMYNPAAIKNILIRNNSFISFNFAHDGVKFSVKDSYSFLLCSLANASKAFLNEETFKKTDFPHHDLKTADDLYKVYKEWSSVNTEINHVVEKEKLLITSEHIVNFTKNDKSKTLIEWSKDYCRNDVLVLSKVWLEFKNAVEDIFNCELVDQTMTLAGLSYKLFQANMPFDVELRHPNKEDYFNMREALIGGRCISVNGIYKDVLCLDVKSLYPASMAFYDQPYGSFKRVSSRPKDELGIYYVRVTPNRNNKSNFFPIRSHNKITYNNFEESTYIAWYTNVDIDIGLSEGHNIEYIPFDSYGNIGYSWSKKGKIFEKYIKDVLYKLKIKYEKQNNKVKRNVIKIIMNSLWGKFAQKWVNFEYFIKSEDDIDFESEEAYKIWDTDFMLIKKIKESTYSSKPIQNGVFTLSWARYHMKSIWDAGAKEGAECIYSDTDSIFVHKEHFKKNAKFMLNGLKVPIIGSEVGQLELECEFDKLLCAGKKQYMGFYTYFQDGKPCIKEKKRFKGIPSNYIIPELYAHLLSGADKEAKIQFLKFRREWGSVKGYIENKTVKAT | 2.57 |
| S289K: TP-DNAP1 variant (protein, listed as Kluyveromyces lactis) MDYKDKALNDLRNVYADFDSLPLDFRQILIKDRATLLQKEDVEKKILERQEDAKKYAEYLKQSEIPERISLPNIKRHKGVSISFEETSEDMVLEPRPFIFDGLNIRCFRRETIFSLKNKILNMVKESSSFKNVSRQSVSFMYFKIFNKGKVIASTKSVNIYEDKIDERLEDLCNNFDDVLKKIIDVTYGYESLFVSETYSYVIFYAKSIYFPQPRCVNNWGNNIPNILTFDSFKLFTANKNNVSCIKQCSRFLWQKDFNTLEEMIEYKNGNICIVTPQLHINDVRDIKKFNDIRLYSESPIKTFSVIDNTITYLFYFKEHLGVIFNITKSRHDRRVTKFSPLSKFSDVKNITVCFDIESYFDPEKESNQVNIPFICCASIIYNKVIGNIVDFEGRDCVAQMIEYVVDICGELNISSVELIAHNGGGYDFHYILSSMYNPAAIKNILIRNNSFISFNFAHDGVKFSVKDSYSFLLCSLANASKAFLNEETFKKTDFPHHDLKTADDLYKVYKEWSSVNTEINHVVEKEKLLITSEHIVNFTKNDKSKTLIEWSKDYCRNDVLVLSKVWLEFKNAVEDIFNCELVDQTMTLAGLSYKLFQANMPFDVELRHPNKEDYFNMREALIGGRCISVNGIYKDVLCLDVKSLYPASMAFYDQPYGSFKRVSSRPKDELGIYYVRVTPNRNNKSNFFPIRSHNKITYNNFEESTYIAWYTNVDIDIGLSEGHNIEYIPFDSYGNIGYSWSKKGKIFEKYIKDVLYKLKIKYEKQNNKVKRNVIKIIMNSLWGKFAQKWVNFEYFIKSEDDIDFESEEAYKIWDTDFMLIKKIKESTYSSKPIQNGVFTLSWARYHMKSIWDAGAKEGAECIYSDTDSIFVHKEHFKKNAKFMLNGLKVPIIGSEVGQLELECEFDKLLCAGKKQYMGFYTYFQDGKPCIKEKKRFKGIPSNYIIPELYAHLLSGADKEAKIQFLKFRREWGSVKGYIENKTVKAT | 2.02 |
| G410L: TP-DNAP1 variant (protein) MDYKDKALNDLRNVYADFDSLPLDFRQILIKDRATLLQKEDVEKKILERQEDAKKYAEYLKQSEIPERISLPNIKRHKGVSISFEETSEDMVLEPRPFIFDGLNIRCFRRETIFSLKNKILNMVKESSSFKNVSRQSVSFMYFKIFNKGKVIASTKSVNIYEDKIDERLEDLCNNFDDVLKKIIDVTYGYESLFVSETYSYVIFYAKSIYFPQPRCVNNWGNNIPNILTFDSFKLFTANKNNVSCIKQCSRFLWQKDFNTLEEMIEYKNGNICIVTPQLHINDVRDIKSFNDIRLYSESPIKTFSVIDNTITYLFYFKEHLGVIFNITKSRHDRRVTKFSPLSKFSDVKNITVCFDIESYFDPEKESNQVNIPFICCASIIYNKVIGNIVDFEGRDCVAQMIEYVVDICLELNISSVELIAHNGGGYDFHYILSSMYNPAAIKNILIRNNSFISFNFAHDGVKFSVKDSYSFLLCSLANASKAFLNEETFKKTDFPHHDLKTADDLYKVYKEWSSVNTEINHVVEKEKLLITSEHIVNFTKNDKSKTLIEWSKDYCRNDVLVLSKVWLEFKNAVEDIFNCELVDQTMTLAGLSYKLFQANMPFDVELRHPNKEDYFNMREALIGGRCISVNGIYKDVLCLDVKSLYPASMAFYDQPYGSFKRVSSRPKDELGIYYVRVTPNRNNKSNFFPIRSHNKITYNNFEESTYIAWYTNVDIDIGLSEGHNIEYIPFDSYGNIGYSWSKKGKIFEKYIKDVLYKLKIKYEKQNNKVKRNVIKIIMNSLWGKFAQKWVNFEYFIKSEDDIDFESEEAYKIWDTDFMLIKKIKESTYSSKPIQNGVFTLSWARYHMKSIWDAGAKEGAECIYSDTDSIFVHKEHFKKNAKFMLNGLKVPIIGSEVGQLELECEFDKLLCAGKKQYMGFYTYFQDGKPCIKEKKRFKGIPSNYIIPELYAHLLSGADKEAKIQFLKFRREWGSVKGYIENKTVKAT | 2.57 |
| G410K: TP-DNAP1 variant (protein) MDYKDKALNDLRNVYADFDSLPLDFRQILIKDRATLLQKEDVEKKILERQEDAKKYAEYLKQSEIPERISLPNIKRHKGVSISFEETSEDMVLEPRPFIFDGLNIRCFRRETIFSLKNKILNMVKESSSFKNVSRQSVSFMYFKIFNKGKVIASTKSVNIYEDKIDERLEDLCNNFDDVLKKIIDVTYGYESLFVSETYSYVIFYAKSIYFPQPRCVNNWGNNIPNILTFDSFKLFTANKNNVSCIKQCSRFLWQKDFNTLEEMIEYKNGNICIVTPQLHINDVRDIKSFNDIRLYSESPIKTFSVIDNTITYLFYFKEHLGVIFNITKSRHDRRVTKFSPLSKFSDVKNITVCFDIESYFDPEKESNQVNIPFICCASIIYNKVIGNIVDFEGRDCVAQMIEYVVDICKELNISSVELIAHNGGGYDFHYILSSMYNPAAIKNILIRNNSFISFNFAHDGVKFSVKDSYSFLLCSLANASKAFLNEETFKKTDFPHHDLKTADDLYKVYKEWSSVNTEINHVVEKEKLLITSEHIVNFTKNDKSKTLIEWSKDYCRNDVLVLSKVWLEFKNAVEDIFNCELVDQTMTLAGLSYKLFQANMPFDVELRHPNKEDYFNMREALIGGRCISVNGIYKDVLCLDVKSLYPASMAFYDQPYGSFKRVSSRPKDELGIYYVRVTPNRNNKSNFFPIRSHNKITYNNFEESTYIAWYTNVDIDIGLSEGHNIEYIPFDSYGNIGYSWSKKGKIFEKYIKDVLYKLKIKYEKQNNKVKRNVIKIIMNSLWGKFAQKWVNFEYFIKSEDDIDFESEEAYKIWDTDFMLIKKIKESTYSSKPIQNGVFTLSWARYHMKSIWDAGAKEGAECIYSDTDSIFVHKEHFKKNAKFMLNGLKVPIIGSEVGQLELECEFDKLLCAGKKQYMGFYTYFQDGKPCIKEKKRFKGIPSNYIIPELYAHLLSGADKEAKIQFLKFRREWGSVKGYIENKTVKAT | 2.53 |
| G410M: TP-DNAP1 variant (protein) MDYKDKALNDLRNVYADFDSLPLDFRQILIKDRATLLQKEDVEKKILERQEDAKKYAEYLKQSEIPERISLPNIKRHKGVSISFEETSEDMVLEPRPFIFDGLNIRCFRRETIFSLKNKILNMVKESSSFKNVSRQSVSFMYFKIFNKGKVIASTKSVNIYEDKIDERLEDLCNNFDDVLKKIIDVTYGYESLFVSETYSYVIFYAKSIYFPQPRCVNNWGNNIPNILTFDSFKLFTANKNNVSCIKQCSRFLWQKDFNTLEEMIEYKNGNICIVTPQLHINDVRDIKSFNDIRLYSESPIKTFSVIDNTITYLFYFKEHLGVIFNITKSRHDRRVTKFSPLSKFSDVKNITVCFDIESYFDPEKESNQVNIPFICCASIIYNKVIGNIVDFEGRDCVAQMIEYVVDICMELNISSVELIAHNGGGYDFHYILSSMYNPAAIKNILIRNNSFISFNFAHDGVKFSVKDSYSFLLCSLANASKAFLNEETFKKTDFPHHDLKTADDLYKVYKEWSSVNTEINHVVEKEKLLITSEHIVNFTKNDKSKTLIEWSKDYCRNDVLVLSKVWLEFKNAVEDIFNCELVDQTMTLAGLSYKLFQANMPFDVELRHPNKEDYFNMREALIGGRCISVNGIYKDVLCLDVKSLYPASMAFYDQPYGSFKRVSSRPKDELGIYYVRVTPNRNNKSNFFPIRSHNKITYNNFEESTYIAWYTNVDIDIGLSEGHNIEYIPFDSYGNIGYSWSKKGKIFEKYIKDVLYKLKIKYEKQNNKVKRNVIKIIMNSLWGKFAQKWVNFEYFIKSEDDIDFESEEAYKIWDTDFMLIKKIKESTYSSKPIQNGVFTLSWARYHMKSIWDAGAKEGAECIYSDTDSIFVHKEHFKKNAKFMLNGLKVPIIGSEVGQLELECEFDKLLCAGKKQYMGFYTYFQDGKPCIKEKKRFKGIPSNYIIPELYAHLLSGADKEAKIQFLKFRREWGSVKGYIENKTVKAT | 2.55 |
